{"source": "paper PMC7913776", "about": "(Nucleic Acids Research, 2021)", "binders": {"B1": {"name": "HIS-tagged NANOG (natural protein)", "chain": "MSVGLPGPHSLPSSEEASNSGNASSMPAVFHPENYSCLQGSATEMLCTEAASPRPSSEDLPLQGSPDSSTSPKQKLSSPEADKGPEEEENKVLARKQKMRTVFSQAQLCALKDRFQKQKYLSLQQMQELSSILNLSYKQVKTWFQNQRMKCKRWQKNQWLKTSNGLIQKGSAPVEYPSIHCSYPQGYLVNASGSLSMWGSQTWTNPTWSSQTWTNPTWNNQTWTNPTWSSQAWTAQSWNGQPWNAAPLHNFGEDFLQPYVQLQQNFSASDLEVNLEATRESHAHFSTPQALELFLNYSVTPPGEI"}}, "target": "T1, GST-tagged full-length BACH1 protein (mouse, UniProt P97302 1-739)", "T1 sequence": "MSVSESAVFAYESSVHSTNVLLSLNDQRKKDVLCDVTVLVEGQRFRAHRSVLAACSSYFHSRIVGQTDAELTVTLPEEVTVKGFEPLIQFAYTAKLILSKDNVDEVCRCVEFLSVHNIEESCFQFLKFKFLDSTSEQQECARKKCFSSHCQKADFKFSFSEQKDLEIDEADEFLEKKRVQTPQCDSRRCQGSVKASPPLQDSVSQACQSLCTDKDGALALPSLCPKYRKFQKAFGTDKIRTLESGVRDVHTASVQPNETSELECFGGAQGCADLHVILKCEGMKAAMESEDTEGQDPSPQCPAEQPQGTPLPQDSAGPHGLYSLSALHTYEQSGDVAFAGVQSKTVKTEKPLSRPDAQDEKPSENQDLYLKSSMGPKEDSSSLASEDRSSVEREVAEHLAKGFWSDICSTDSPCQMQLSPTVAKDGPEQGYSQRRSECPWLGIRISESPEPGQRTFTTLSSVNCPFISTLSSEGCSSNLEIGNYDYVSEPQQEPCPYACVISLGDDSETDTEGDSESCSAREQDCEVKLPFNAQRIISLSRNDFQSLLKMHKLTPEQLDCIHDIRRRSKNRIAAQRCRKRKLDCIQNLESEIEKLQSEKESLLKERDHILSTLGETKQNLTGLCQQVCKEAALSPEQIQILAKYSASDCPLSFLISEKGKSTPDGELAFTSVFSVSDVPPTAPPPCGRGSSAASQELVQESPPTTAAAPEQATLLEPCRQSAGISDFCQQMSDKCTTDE", "assay": "pull-down", "data": [{"binder": "B1", "values": [{"measurement": "binding result", "result": "binds"}]}]}
